Source: patent publication US10941182 (Amgen, dated 2021)
Starred links: 1 amine or outer side, 2 acyl side, 3 side chain; linkers in the order of their positions; H or OH if unused. Non-standard residues stand in square brackets, D forms with d. *: point of attachment. Oic = O=C(O)[C@@H]1C[C@@H]2CCCC[C@@H]2N1; Phe(4-Cl) = N[C@@H](Cc1ccc(Cl)cc1)C(=O)O; γGlu = O=C(O)[C@H](CCC(=O)[*:2])N[*:1]; NMeR = CN[C@@H](CCCNC(=N)N)C(=O)O; Tridecanoyl = CCCCCCCCCCCCC(=O)*; hArg = N=C(N)NCCCC[C@H](N)C(=O)O; Cha = N[C@@H](CC1CCCCC1)C(=O)O; αMeL = CC(C)C[C@](C)(N)C(=O)O; αMeP = C[C@@]1(C(=O)O)CCCN1; β3hP = O=C(O)C[C@@H]1CCCN1; Nle = CCCC[C@H](N)C(=O)O; AEEA = NCCOCCOCC(=O)O; Aib = CC(C)(N)C(=O)O

B1: Apelin polypeptide SEQ ID NO: 386 (peptide)
peptide: Tridecanoyl-[γGlu][AEEA][AEEA][dQ]RP[NMeR][αMeL]SHKG[Oic][Nle]P[Phe(4-Cl)]-OH
SMILES: CCCCCCCCCCCCC(=O)N[C@@H](CCC(=O)NCCOCCOCC(=O)NCCOCCOCC(=O)N[C@H](CCC(N)=O)C(=O)N[C@@H](CCCNC(=N)N)C(=O)N1CCC[C@H]1C(=O)N(C)[C@@H](CCCNC(=N)N)C(=O)N[C@@](C)(CC(C)C)C(=O)N[C@@H](CO)C(=O)N[C@@H](Cc1c[nH]cn1)C(=O)N[C@@H](CCCCN)C(=O)NCC(=O)N1[C@H](C(=O)N[C@@H](CCCC)C(=O)N2CCC[C@H]2C(=O)N[C@@H](Cc2ccc(Cl)cc2)C(=O)O)C[C@@H]2CCCC[C@@H]21)C(=O)O
B2: Apelin polypeptide SEQ ID NO: 428 (peptide)
peptide: Tridecanoyl-[γGlu][AEEA][AEEA]QRP[Nle]LSHKGP[Nle]P[Phe(4-Cl)]-OH
SMILES: CCCCCCCCCCCCC(=O)N[C@@H](CCC(=O)NCCOCCOCC(=O)NCCOCCOCC(=O)N[C@@H](CCC(N)=O)C(=O)N[C@@H](CCCNC(=N)N)C(=O)N1CCC[C@H]1C(=O)N[C@@H](CCCC)C(=O)N[C@@H](CC(C)C)C(=O)N[C@@H](CO)C(=O)N[C@@H](Cc1c[nH]cn1)C(=O)N[C@@H](CCCCN)C(=O)NCC(=O)N1CCC[C@H]1C(=O)N[C@@H](CCCC)C(=O)N1CCC[C@H]1C(=O)N[C@@H](Cc1ccc(Cl)cc1)C(=O)O)C(=O)O
B3: Apelin polypeptide SEQ ID NO: 554 (peptide)
peptide: Tridecanoyl-[γGlu][AEEA][AEEA][dQ]RP[NMeR][αMeL]SHKG[Oic][Nle][β3hP][Phe(4-Cl)]-OH
SMILES: CCCCCCCCCCCCC(=O)N[C@@H](CCC(=O)NCCOCCOCC(=O)NCCOCCOCC(=O)N[C@H](CCC(N)=O)C(=O)N[C@@H](CCCNC(=N)N)C(=O)N1CCC[C@H]1C(=O)N(C)[C@@H](CCCNC(=N)N)C(=O)N[C@@](C)(CC(C)C)C(=O)N[C@@H](CO)C(=O)N[C@@H](Cc1c[nH]cn1)C(=O)N[C@@H](CCCCN)C(=O)NCC(=O)N1[C@H](C(=O)N[C@@H](CCCC)C(=O)N2CCC[C@H]2CC(=O)N[C@@H](Cc2ccc(Cl)cc2)C(=O)O)C[C@@H]2CCCC[C@@H]21)C(=O)O
B4: Apelin polypeptide SEQ ID NO: 385 (peptide)
peptide: Tridecanoyl-[γGlu][AEEA][AEEA]QRP[NMeR][αMeL]SHKG[Oic][Nle]P[Phe(4-Cl)]-OH
SMILES: CCCCCCCCCCCCC(=O)N[C@@H](CCC(=O)NCCOCCOCC(=O)NCCOCCOCC(=O)N[C@@H](CCC(N)=O)C(=O)N[C@@H](CCCNC(=N)N)C(=O)N1CCC[C@H]1C(=O)N(C)[C@@H](CCCNC(=N)N)C(=O)N[C@@](C)(CC(C)C)C(=O)N[C@@H](CO)C(=O)N[C@@H](Cc1c[nH]cn1)C(=O)N[C@@H](CCCCN)C(=O)NCC(=O)N1[C@H](C(=O)N[C@@H](CCCC)C(=O)N2CCC[C@H]2C(=O)N[C@@H](Cc2ccc(Cl)cc2)C(=O)O)C[C@@H]2CCCC[C@@H]21)C(=O)O
B5: Apelin polypeptide SEQ ID NO: 376 (peptide)
peptide: Tridecanoyl-[γGlu][AEEA][AEEA]QRP[NMeR][αMeL]SHKG[Oic][Nle][αMeP][Phe(4-Cl)]-OH
SMILES: CCCCCCCCCCCCC(=O)N[C@@H](CCC(=O)NCCOCCOCC(=O)NCCOCCOCC(=O)N[C@@H](CCC(N)=O)C(=O)N[C@@H](CCCNC(=N)N)C(=O)N1CCC[C@H]1C(=O)N(C)[C@@H](CCCNC(=N)N)C(=O)N[C@@](C)(CC(C)C)C(=O)N[C@@H](CO)C(=O)N[C@@H](Cc1c[nH]cn1)C(=O)N[C@@H](CCCCN)C(=O)NCC(=O)N1[C@H](C(=O)N[C@@H](CCCC)C(=O)N2CCC[C@@]2(C)C(=O)N[C@@H](Cc2ccc(Cl)cc2)C(=O)O)C[C@@H]2CCCC[C@@H]21)C(=O)O
B6: Apelin polypeptide SEQ ID NO: 528 (peptide)
peptide: Tridecanoyl-[γGlu][AEEA][AEEA][dQ]RP[Nle][Cha]SHKG[Oic][Nle][Aib][Phe(4-Cl)]-OH
SMILES: CCCCCCCCCCCCC(=O)N[C@@H](CCC(=O)NCCOCCOCC(=O)NCCOCCOCC(=O)N[C@H](CCC(N)=O)C(=O)N[C@@H](CCCNC(=N)N)C(=O)N1CCC[C@H]1C(=O)N[C@@H](CCCC)C(=O)N[C@@H](CC1CCCCC1)C(=O)N[C@@H](CO)C(=O)N[C@@H](Cc1c[nH]cn1)C(=O)N[C@@H](CCCCN)C(=O)NCC(=O)N1[C@H](C(=O)N[C@@H](CCCC)C(=O)NC(C)(C)C(=O)N[C@@H](Cc2ccc(Cl)cc2)C(=O)O)C[C@@H]2CCCC[C@@H]21)C(=O)O
B7: Apelin polypeptide SEQ ID NO: 389 (peptide)
peptide: Tridecanoyl-[γGlu][AEEA][AEEA]QRP[NMeR][αMeL]SHKG[Oic][Nle][Phe(4-Cl)]-OH
SMILES: CCCCCCCCCCCCC(=O)N[C@@H](CCC(=O)NCCOCCOCC(=O)NCCOCCOCC(=O)N[C@@H](CCC(N)=O)C(=O)N[C@@H](CCCNC(=N)N)C(=O)N1CCC[C@H]1C(=O)N(C)[C@@H](CCCNC(=N)N)C(=O)N[C@@](C)(CC(C)C)C(=O)N[C@@H](CO)C(=O)N[C@@H](Cc1c[nH]cn1)C(=O)N[C@@H](CCCCN)C(=O)NCC(=O)N1[C@H](C(=O)N[C@@H](CCCC)C(=O)N[C@@H](Cc2ccc(Cl)cc2)C(=O)O)C[C@@H]2CCCC[C@@H]21)C(=O)O
B8: Apelin polypeptide SEQ ID NO: 308 (peptide)
peptide: Tridecanoyl-[γGlu][AEEA][AEEA]QRP[hArg][Cha]SHKG[Oic][Nle]P[Phe(4-Cl)]-OH
SMILES: CCCCCCCCCCCCC(=O)N[C@@H](CCC(=O)NCCOCCOCC(=O)NCCOCCOCC(=O)N[C@@H](CCC(N)=O)C(=O)N[C@@H](CCCNC(=N)N)C(=O)N1CCC[C@H]1C(=O)N[C@@H](CCCCNC(=N)N)C(=O)N[C@@H](CC1CCCCC1)C(=O)N[C@@H](CO)C(=O)N[C@@H](Cc1c[nH]cn1)C(=O)N[C@@H](CCCCN)C(=O)NCC(=O)N1[C@H](C(=O)N[C@@H](CCCC)C(=O)N2CCC[C@H]2C(=O)N[C@@H](Cc2ccc(Cl)cc2)C(=O)O)C[C@@H]2CCCC[C@@H]21)C(=O)O
B9: Apelin polypeptide SEQ ID NO: 529 (peptide)
peptide: Tridecanoyl-[γGlu][AEEA][AEEA][dQ]RP[Nle][Cha]SAKG[Oic][Nle][Aib][Phe(4-Cl)]-OH
SMILES: CCCCCCCCCCCCC(=O)N[C@@H](CCC(=O)NCCOCCOCC(=O)NCCOCCOCC(=O)N[C@H](CCC(N)=O)C(=O)N[C@@H](CCCNC(=N)N)C(=O)N1CCC[C@H]1C(=O)N[C@@H](CCCC)C(=O)N[C@@H](CC1CCCCC1)C(=O)N[C@@H](CO)C(=O)N[C@@H](C)C(=O)N[C@@H](CCCCN)C(=O)NCC(=O)N1[C@H](C(=O)N[C@@H](CCCC)C(=O)NC(C)(C)C(=O)N[C@@H](Cc2ccc(Cl)cc2)C(=O)O)C[C@@H]2CCCC[C@@H]21)C(=O)O
B10: Apelin polypeptide SEQ ID NO: 605 (peptide)
peptide: XXXQRPRLSHKGXXPF
modifications: {TDA}[AC4Abu][Aeea][Aeea]QRP[NMeArg][aMeLeu]SHKG[Pip][Nle][aMePro][4-Cl-F]{COOH}
B11: Apelin polypeptide SEQ ID NO: 555 (peptide)
peptide: XXXQRPRLSHKGXXPF
modifications: {TDA}[AC4Abu][Aeea][Aeea]qRP[NMeArg][aMeLeu]SHKG[Pip][Nle][aMePro][4-Cl-F]{COOH}
B12: Apelin polypeptide SEQ ID NO: 356 (peptide)
peptide: Tridecanoyl-[γGlu][AEEA][AEEA]QRP[hArg]LSHKG[Oic][Nle]P[Phe(4-Cl)]-OH
SMILES: CCCCCCCCCCCCC(=O)N[C@@H](CCC(=O)NCCOCCOCC(=O)NCCOCCOCC(=O)N[C@@H](CCC(N)=O)C(=O)N[C@@H](CCCNC(=N)N)C(=O)N1CCC[C@H]1C(=O)N[C@@H](CCCCNC(=N)N)C(=O)N[C@@H](CC(C)C)C(=O)N[C@@H](CO)C(=O)N[C@@H](Cc1c[nH]cn1)C(=O)N[C@@H](CCCCN)C(=O)NCC(=O)N1[C@H](C(=O)N[C@@H](CCCC)C(=O)N2CCC[C@H]2C(=O)N[C@@H](Cc2ccc(Cl)cc2)C(=O)O)C[C@@H]2CCCC[C@@H]21)C(=O)O

target: T1, rat APJ receptor (rat, UniProt Q9JHG3 1-377); experiment: cell-based or functional assay
T1 sequence (looked up): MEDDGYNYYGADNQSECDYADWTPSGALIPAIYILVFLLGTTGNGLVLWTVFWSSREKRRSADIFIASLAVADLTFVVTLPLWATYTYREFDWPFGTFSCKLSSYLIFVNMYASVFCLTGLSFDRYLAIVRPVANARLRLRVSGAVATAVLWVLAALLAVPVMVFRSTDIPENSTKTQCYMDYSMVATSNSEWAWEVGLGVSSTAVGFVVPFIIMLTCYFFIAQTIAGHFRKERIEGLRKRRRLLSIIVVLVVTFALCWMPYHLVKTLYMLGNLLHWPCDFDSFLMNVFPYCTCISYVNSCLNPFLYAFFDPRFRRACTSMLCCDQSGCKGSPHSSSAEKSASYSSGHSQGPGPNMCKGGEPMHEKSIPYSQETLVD

With B1 as the binder, how does the “EC50 Rat APJ Receptor (GTPγS assay)” value read?
The value was 261 pM.

Which “EC50 Rat APJ Receptor (GTPγS assay)” value does the source give for B2 here?
Its value is 494 pM.

With B3 as the binder, how does the “EC50 Rat APJ Receptor (GTPγS assay)” value read?
The value was 2830 pM.

How did the “EC50 Rat APJ Receptor (GTPγS assay)” value turn out when B4 was run?
Its value is 170 pM.

With B5 as the binder, how does the “EC50 Rat APJ Receptor (GTPγS assay)” value read?
The value was 414 pM.

How did the “EC50 Rat APJ Receptor (GTPγS assay)” value turn out when B6 was run?
The value was 21800 pM.

B7 was tested. Which “EC50 Rat APJ Receptor (GTPγS assay)” value did it give?
Its value is 365 pM.

With B8 as the binder, how does the “EC50 Rat APJ Receptor (GTPγS assay)” value read?
The value was 180 pM.

With B9 as the binder, how does the “EC50 Rat APJ Receptor (GTPγS assay)” value read?
The value was 24000 pM.

How did the “EC50 Rat APJ Receptor (GTPγS assay)” value turn out when B10 was run?
Its value is 298 pM.

With B11 as the binder, how does the “EC50 Rat APJ Receptor (GTPγS assay)” value read?
Its value is 422 pM.

For B12, which “EC50 Rat APJ Receptor (GTPγS assay)” value is on record?
The value was 289 pM.

target: T2, human APJ receptor (human, UniProt P35414 1-380); experiment: cell-based or functional assay
T2 sequence (looked up): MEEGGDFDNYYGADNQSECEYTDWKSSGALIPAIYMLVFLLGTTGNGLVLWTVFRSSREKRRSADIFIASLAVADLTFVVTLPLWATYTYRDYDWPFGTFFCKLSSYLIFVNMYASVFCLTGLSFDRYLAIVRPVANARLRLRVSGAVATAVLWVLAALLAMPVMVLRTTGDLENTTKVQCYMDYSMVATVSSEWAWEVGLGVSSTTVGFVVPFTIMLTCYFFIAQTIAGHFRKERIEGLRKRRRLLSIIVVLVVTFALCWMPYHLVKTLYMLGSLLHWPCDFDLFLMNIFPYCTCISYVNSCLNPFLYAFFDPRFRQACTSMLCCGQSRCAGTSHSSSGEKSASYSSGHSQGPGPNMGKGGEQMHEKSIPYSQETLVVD

With B1 as the binder, how does the “EC50 Human APJ Receptor (GTPγS assay)” value read?
Its value is 93.4 pM.

Which “EC50 Human APJ Receptor (GTPγS assay)” value does the source give for B2 here?
Its value is 400 pM.

B3 was tested. Which “EC50 Human APJ Receptor (GTPγS assay)” value did it give?
The value was 867 pM.

B4 was tested. Which “EC50 Human APJ Receptor (GTPγS assay)” value did it give?
Its value is 68.8 pM.

How did the “EC50 Human APJ Receptor (GTPγS assay)” value turn out when B5 was run?
The value was 238 pM.

For B6, which “EC50 Human APJ Receptor (GTPγS assay)” value is on record?
The value was 5630 pM.

B7 was tested. Which “EC50 Human APJ Receptor (GTPγS assay)” value did it give?
Its value is 196 pM.

How did the “EC50 Human APJ Receptor (GTPγS assay)” value turn out when B8 was run?
The value was 86.7 pM.

How did the “EC50 Human APJ Receptor (GTPγS assay)” value turn out when B9 was run?
Its value is 5260 pM.

B10 was tested. Which “EC50 Human APJ Receptor (GTPγS assay)” value did it give?
The value was 83.2 pM.

B11 was tested. Which “EC50 Human APJ Receptor (GTPγS assay)” value did it give?
Its value is 102 pM.

How did the “EC50 Human APJ Receptor (GTPγS assay)” value turn out when B12 was run?
The value was 320 pM.
